# T1: CD25 (Homo sapiens (Human), UniProt P01589 22-240)
# T1 construct: also called IL-2R alpha chain
# T1 sequence: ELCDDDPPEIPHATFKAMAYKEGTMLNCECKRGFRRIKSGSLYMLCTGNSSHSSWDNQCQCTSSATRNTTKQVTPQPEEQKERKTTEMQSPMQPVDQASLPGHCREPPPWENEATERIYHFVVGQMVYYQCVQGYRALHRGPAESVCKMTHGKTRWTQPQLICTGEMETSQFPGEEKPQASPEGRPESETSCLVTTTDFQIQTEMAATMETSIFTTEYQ
# Biological target: T1, CD25
# Test: ELISA, CD25 coated at 0.5 µg/mL, detection with biotinylated anti-IL-2 polyclonal
# Protocol: An immunosorbent plate was coated with CD25 at a concentration of 0.5 μg/mL in PBS pH 7.4, 75 μL/well, and incubated overnight at 4° C. Wells were washed with PBS pH 7.4 containing 0.05% Tween-20 (wash buffer) three times, and then blocked with 200 μL/well 1% BSA in PBS pH 7.4 (block buffer) for two hours at room temperature. After three washes with wash buffer IL-2 muteins SEQ ID NO: 53, SEQ ID NO: 54, SEQ ID NO: 55, SEQ ID NO: 56 were diluted to eleven-two fold serial dilution in PBS containing 1% BSA and 0.05% Tween-20 (assay buffer) with 2 nM being the highest concentration. The diluted material was added to the CD25 coated plate at 75 μL/well for 1 hour at room temperature. After three washes with wash buffer, a goat biotinylated anti-IL-2 polyclonal antibody, diluted to 0.05 μg/mL in assay buffer, was added to the plate at 75 μL/well for 1 hour at room temperature. After three washes with wash buffer high sensitivity streptavidin HRP diluted in assay buffer at 1:5000 was added to the plate at 75 μL/well for 15 minutes at room temperature. After three washes with wash buffer and 1 wash with wash buffer (with no Tween-20), the assay was developed with TMB, and stopped with 1N HCL. OD 450 nm was measured. The experiment included appropriate controls for non-specific binding of the molecules to the plate/block in the absence of CD25. […] Additionally, there was no detection of any compound at any concentration tested, when CD25 was not present on the plate surface, indicating none of the test compounds were interacting non-specifically with the plate surface. Thus, the muteins of Example 19 can bind to CD25.
row,EC50 [nM],Molecule
1,< 1,"human IL-2 mutein polypeptide fused N-terminally to human IgG1 Fc domain (SEQ ID NO: 57) (Fc fusion, also called IL-2 N88D V69A, Q74P-G4Sx4-Fc) APTSSSTKKTQLQLEHLLLDLQMILNGINNYKNPKLTRMLTFKFYMPKKATELKHLQCLEEELKPLEEALNLAPSKNFHLRPRDLISDINVIVLELKGSETTFMCEYADETATIVEFLNRWITFSQSIISTLTGGGGSGGGGSGGGGSGGGGSDKTHTCPPCPAPEAAGAPSVFLFPPKPKDTLMISRTPEVTCVVVDVSHEDPEVKFNWYVDGVEVHNAKTKPREEQYNSTYRVVSVLTVLHQDWLNGKEYKCKVSNKALPAPIEKTISKAKGQPREPQVYTLPPSREEMTKNQVSLTCLVKGFYPSDIAVEWESNGQPENNYKTTPPVLDSDGSFFLYSKLTVDKSRWQQGNVFSCSVMHEALHNHYTQKSLSLSPG"
2,< 1,"SEQ ID NO 53 (Fc fusion, also called IL-2 L53I N88D V69A, Q74P,C125S-G4Sx4-Fc) APTSSSTKKTQLQLEHLLLDLQMILNGINNYKNPKLTRMLTFKFYMPKKATEIKHLQCLEEELKPLEEALNLAPSKNFHLRPRDLISDINVIVLELKGSETTFMCEYADETATIVEFLNRWITFSQSIISTLTGGGGSGGGGSGGGGSGGGGSDKTHTCPPCPAPEAAGAPSVFLFPPKPKDTLMISRTPEVTCVVVDVSHEDPEVKFNWYVDGVEVHNAKTKPREEQYNSTYRVVSVLTVLHQDWLNGKEYKCKVSNKALPAPIEKTISKAKGQPREPQVYTLPPSREEMTKNQVSLTCLVKGFYPSDIAVEWESNGQPENNYKTTPPVLDSDGSFFLYSKLTVDKSRWQQGNVFSCSVMHEALHNHYTQKSLSLSPG"
3,< 1,"SEQ ID NO 55 (Fc fusion, also called IL-2 L80I N88D V69A, C125S Q74P-G4Sx4-Fc) APTSSSTKKTQLQLEHLLLDLQMILNGINNYKNPKLTRMLTFKFYMPKKATELKHLQCLEEELKPLEEALNLAPSKNFHIRPRDLISDINVIVLELKGSETTFMCEYADETATIVEFLNRWITFSQSIISTLTGGGGSGGGGSGGGGSGGGGSDKTHTCPPCPAPEAAGAPSVFLFPPKPKDTLMISRTPEVTCVVVDVSHEDPEVKFNWYVDGVEVHNAKTKPREEQYNSTYRVVSVLTVLHQDWLNGKEYKCKVSNKALPAPIEKTISKAKGQPREPQVYTLPPSREEMTKNQVSLTCLVKGFYPSDIAVEWESNGQPENNYKTTPPVLDSDGSFFLYSKLTVDKSRWQQGNVFSCSVMHEALHNHYTQKSLSLSPG"
4,< 1,"SEQ ID NO 54 (Fc fusion, also called IL-2 L56I N88D V69A, Q74P, C125S-G4Sx4-Fc) APTSSSTKKTQLQLEHLLLDLQMILNGINNYKNPKLTRMLTFKFYMPKKATELKHIQCLEEELKPLEEALNLAPSKNFHLRPRDLISDINVIVLELKGSETTFMCEYADETATIVEFLNRWITFSQSIISTLTGGGGSGGGGSGGGGSGGGGSDKTHTCPPCPAPEAAGAPSVFLFPPKPKDTLMISRTPEVTCVVVDVSHEDPEVKFNWYVDGVEVHNAKTKPREEQYNSTYRVVSVLTVLHQDWLNGKEYKCKVSNKALPAPIEKTISKAKGQPREPQVYTLPPSREEMTKNQVSLTCLVKGFYPSDIAVEWESNGQPENNYKTTPPVLDSDGSFFLYSKLTVDKSRWQQGNVFSCSVMHEALHNHYTQKSLSLSPG"
5,< 1,"SEQ ID NO 56 (Fc fusion, also called IL-2 L118I N88D V69A, Q74P, C125S-G4Sx4-Fc) APTSSSTKKTQLQLEHLLLDLQMILNGINNYKNPKLTRMLTFKFYMPKKATELKHLQCLEEELKPLEEALNLAPSKNFHLRPRDLISDINVIVLELKGSETTFMCEYADETATIVEFINRWITFSQSIISTLTGGGGSGGGGSGGGGSGGGGSDKTHTCPPCPAPEAAGAPSVFLFPPKPKDTLMISRTPEVTCVVVDVSHEDPEVKFNWYVDGVEVHNAKTKPREEQYNSTYRVVSVLTVLHQDWLNGKEYKCKVSNKALPAPIEKTISKAKGQPREPQVYTLPPSREEMTKNQVSLTCLVKGFYPSDIAVEWESNGQPENNYKTTPPVLDSDGSFFLYSKLTVDKSRWQQGNVFSCSVMHEALHNHYTQKSLSLSPG"

# Biological target: mouse PD-1 on primary mouse T cell blasts (mouse) (UniProt Q02242)
# Sequence (Q02242 25-288): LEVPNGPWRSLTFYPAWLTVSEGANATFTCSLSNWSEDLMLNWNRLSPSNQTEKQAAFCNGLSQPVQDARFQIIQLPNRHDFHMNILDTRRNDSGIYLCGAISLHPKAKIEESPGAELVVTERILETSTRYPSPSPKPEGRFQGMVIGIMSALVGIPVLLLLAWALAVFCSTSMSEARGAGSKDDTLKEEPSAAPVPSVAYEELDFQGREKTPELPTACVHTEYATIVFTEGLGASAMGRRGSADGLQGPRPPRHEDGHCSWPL
# Test: cell-based or functional assay
row,Mouse agonist-CTG: IC50 [nM],Molecule
1,2.4,PD-L1 (reference in the table of Example 36) (ligand)

# From patent publication US20210269496A1 (PANDION OPERATIONS, published 2021)
